Source: patent US20240287172A1 (SCIRHOM, published 2024)

Tests used:
hiR2-FL-T586A-T7 = biological target: T1, hiR2-FL-T586A-T7 (human, UniProt Q6PJF5 1-856); assay: FACS on MEF-DKO cells expressing the variant, 3 µg/ml antibody
T1 sequence: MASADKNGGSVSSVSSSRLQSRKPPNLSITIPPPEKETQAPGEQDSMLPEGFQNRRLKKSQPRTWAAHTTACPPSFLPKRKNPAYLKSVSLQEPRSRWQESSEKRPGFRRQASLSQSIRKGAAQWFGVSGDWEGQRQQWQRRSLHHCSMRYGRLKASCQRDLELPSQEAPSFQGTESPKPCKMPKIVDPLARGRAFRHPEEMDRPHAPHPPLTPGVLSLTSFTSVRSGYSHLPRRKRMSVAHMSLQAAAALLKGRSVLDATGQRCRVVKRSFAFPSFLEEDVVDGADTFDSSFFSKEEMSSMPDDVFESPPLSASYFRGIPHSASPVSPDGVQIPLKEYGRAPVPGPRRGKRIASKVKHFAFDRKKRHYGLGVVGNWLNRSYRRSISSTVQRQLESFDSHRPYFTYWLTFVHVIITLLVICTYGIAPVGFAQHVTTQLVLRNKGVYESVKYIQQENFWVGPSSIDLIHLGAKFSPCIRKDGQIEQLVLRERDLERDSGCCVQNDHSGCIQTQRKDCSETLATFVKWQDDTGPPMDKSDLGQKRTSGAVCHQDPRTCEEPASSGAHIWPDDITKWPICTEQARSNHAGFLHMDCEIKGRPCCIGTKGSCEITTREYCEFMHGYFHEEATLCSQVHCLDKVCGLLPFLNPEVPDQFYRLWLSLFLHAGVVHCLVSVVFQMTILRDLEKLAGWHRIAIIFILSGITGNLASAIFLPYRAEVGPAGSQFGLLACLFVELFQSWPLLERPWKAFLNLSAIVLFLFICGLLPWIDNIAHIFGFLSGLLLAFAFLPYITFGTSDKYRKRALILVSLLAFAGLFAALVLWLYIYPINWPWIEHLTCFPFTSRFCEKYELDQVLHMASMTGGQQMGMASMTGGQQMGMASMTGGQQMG
In short: (§1)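 Pelleted cells are resuspended in antibody at 3 μg/ml and kept on ice 1 hour, washed, then incubated with PE goat anti-mouse IgG F(ab′)2 diluted 1:100 on ice for 1 hour protected from light, washed again and analysed by flow cytometry.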

hiR2-FL-D504A-T7 = biological target: T2, hiR2-FL-D504A-T7 (human, UniProt Q6PJF5 1-856); assay: as above
T2 construct: reduced surface expression reported
T2 sequence: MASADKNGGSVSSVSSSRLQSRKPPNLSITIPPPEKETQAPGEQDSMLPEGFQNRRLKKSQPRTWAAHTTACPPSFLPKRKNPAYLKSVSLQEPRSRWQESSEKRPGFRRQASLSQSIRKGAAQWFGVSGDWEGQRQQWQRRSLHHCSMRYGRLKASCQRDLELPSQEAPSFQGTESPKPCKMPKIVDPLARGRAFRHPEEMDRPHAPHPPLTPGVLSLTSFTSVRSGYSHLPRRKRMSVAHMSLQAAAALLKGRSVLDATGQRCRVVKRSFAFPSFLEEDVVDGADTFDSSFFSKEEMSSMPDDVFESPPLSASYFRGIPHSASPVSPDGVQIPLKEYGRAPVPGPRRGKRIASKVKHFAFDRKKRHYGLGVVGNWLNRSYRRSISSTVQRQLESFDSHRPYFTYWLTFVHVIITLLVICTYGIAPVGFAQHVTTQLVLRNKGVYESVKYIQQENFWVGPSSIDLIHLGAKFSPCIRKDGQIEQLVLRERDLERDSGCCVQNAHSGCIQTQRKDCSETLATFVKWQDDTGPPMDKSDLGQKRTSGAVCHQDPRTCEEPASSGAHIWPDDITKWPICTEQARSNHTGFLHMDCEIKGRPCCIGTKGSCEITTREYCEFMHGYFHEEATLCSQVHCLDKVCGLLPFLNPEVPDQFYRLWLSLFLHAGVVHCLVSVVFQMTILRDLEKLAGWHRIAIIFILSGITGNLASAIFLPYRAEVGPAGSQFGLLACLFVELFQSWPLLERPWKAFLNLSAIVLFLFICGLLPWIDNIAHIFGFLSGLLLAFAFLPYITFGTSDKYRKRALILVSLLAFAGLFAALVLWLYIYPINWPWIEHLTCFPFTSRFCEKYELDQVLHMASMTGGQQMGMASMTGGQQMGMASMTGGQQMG
In short: as §1

B1: antibody 3 (antibody, V domains shown)
VH: QVTLKESGPGILQPSQTLSLTCSFSGFSLTTFAMGIGWVRQPSGKGLEWLAHIWWDGEKYNNPVLKSRLTISKDTSKNQVFLRIANVDTPDTATYYCARISSIYYIIDNWGQGTSVTVSS
VL: DIVLTQSPATLSVTPGHSVSLSCRASQSISNNLHWYQKKSHESPRLLIKYVSQSISGIPSRFSGSGSGTDFTLSINSVETEDFGMYFCQQSYNWPLTFGAGTKLELK
notes: mouse IgG, kappa light chain; also called clone #3; purified antibody 3
In the case of B1, the “loss of binding vs wild type” value (hiR2-FL-T586A-T7) is reported as ≥ 30%.

B2: antibody 5 (antibody, V domains shown)
VH: QVTLKESGPGILQPSQTLSLTCSFSGFSLSTFGMGVGWIRQPSGKGLEWLAHIWWDDEKYYNSALKSRLTISKATSKNQAFLKIANVDTADTATYYCARISNYGSNYWYFNVWGTGTTVTVSS
VL: QVVLTQSPALMSASPGEKVTMTCSAGSSVSCMYWYQQKPGSSPRVLIYDTSNLASGVPARFTGSGSGTSYSLTISRMEAEDAASYYCQQWNSYPLTFGAGTKLELK
notes: mouse IgG, kappa light chain; also called clone #5; purified antibody 5
B2 was tested, and the “loss of binding vs wild type” value (hiR2-FL-T586A-T7) was ≥ 30%.

B3: antibody 48 (antibody, V domains shown)
VH: QVQLQQSGTELVRPGTSVKVSCKASGYAFTNYLIEWVKQRPGQGLEWIGVINPGSGFTKYNEKFKGKATLTADKSSSTVYMHLSSLTSEDSAVYFCARGLYRAMDYWGQGTSVTVSS
VL: DIQMTQSPASQSASLGESVTITCLASQTIATWLAWYQQKPGKSPQLLIYGATTLADGVPSRFSGGGSGTKFSFKISSLQAEDFVSYYCQQLYSTPYTFGGGTKLEIK
notes: mouse IgG, kappa light chain; also called clone #48; purified antibody 48
B3 was tested, and the “loss of binding vs wild type” value (hiR2-FL-D504A-T7) was ≥ 60%.

B4: antibody 50 (antibody, V domains shown)
VH: QVQLQQSGAELVRPGASVKVSCKASGYAFSNYLIEWVKQRPGQGLEWIGVINPGSGFTKYNEKFKGKATLTADKSSSTAYMQLSSLTSEDSAVYFCARGLYRAMDYWGQGTSVTVSS
VL: DIQMTQSPASQSASLGESVTITCLASQTIGTWLAWYQQKPGKSPQLLIYAAASLADGVPSRFSGGGSGTKFSFKISSLQAEDFVNYYCQQIYSTPYTFGGGTKLEIK
notes: mouse IgG, kappa light chain; also called clone #50; purified antibody 50
In the case of B4, the “loss of binding vs wild type” value (hiR2-FL-D504A-T7) is reported as ≥ 60%.
